{
  "source": "patent US20020182666",
  "key": {"[1]": {"molecular_target": "T1, recombinant human full-length TrpRS with C-terminal tag of six histidine residues", "T1 chain": "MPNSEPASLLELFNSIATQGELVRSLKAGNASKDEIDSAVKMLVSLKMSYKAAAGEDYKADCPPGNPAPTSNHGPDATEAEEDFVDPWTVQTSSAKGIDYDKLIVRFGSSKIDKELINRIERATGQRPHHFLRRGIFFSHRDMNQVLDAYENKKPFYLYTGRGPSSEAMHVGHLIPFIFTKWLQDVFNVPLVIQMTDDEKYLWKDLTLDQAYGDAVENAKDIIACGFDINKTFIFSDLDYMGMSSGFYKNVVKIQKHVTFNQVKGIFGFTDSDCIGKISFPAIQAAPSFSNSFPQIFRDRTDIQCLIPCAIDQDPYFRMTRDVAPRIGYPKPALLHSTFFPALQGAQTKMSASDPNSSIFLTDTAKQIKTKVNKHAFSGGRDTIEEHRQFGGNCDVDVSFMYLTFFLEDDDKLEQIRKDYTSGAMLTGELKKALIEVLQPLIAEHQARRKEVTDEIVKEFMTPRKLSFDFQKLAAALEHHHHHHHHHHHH"}, "[2]": {"molecular_target": "T2, recombinant human full-length TyrRS with C-terminal tag of six histidine residues", "T2 chain": "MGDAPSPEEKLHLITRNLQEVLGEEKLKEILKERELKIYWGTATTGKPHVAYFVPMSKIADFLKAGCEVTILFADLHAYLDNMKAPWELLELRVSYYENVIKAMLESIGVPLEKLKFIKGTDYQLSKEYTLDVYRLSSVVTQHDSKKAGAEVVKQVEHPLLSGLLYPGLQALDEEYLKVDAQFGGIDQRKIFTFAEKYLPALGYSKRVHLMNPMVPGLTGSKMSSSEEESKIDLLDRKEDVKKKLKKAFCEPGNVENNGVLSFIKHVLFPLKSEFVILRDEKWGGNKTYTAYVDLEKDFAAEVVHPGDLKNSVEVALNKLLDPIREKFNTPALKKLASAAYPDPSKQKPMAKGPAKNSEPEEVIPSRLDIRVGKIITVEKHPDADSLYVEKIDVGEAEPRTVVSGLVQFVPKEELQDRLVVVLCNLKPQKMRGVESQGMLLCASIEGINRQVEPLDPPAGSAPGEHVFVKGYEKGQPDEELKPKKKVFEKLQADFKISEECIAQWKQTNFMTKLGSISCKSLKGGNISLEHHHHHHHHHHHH"}},
  "data": [
    {"protein": "PMN elastase (protein) IVGGRRARPHAWPFMVSLQLRGGHFCGATLIAPNFVMSAAHCVANVNVRAVRVVLGAHNLSRREPTRQVFAVQRIFENGYDPVNLLNDIVILQLNGSATINANVQVAQLPAQGRRLGNGVQCLAMGWGLLGRNRGIASVLQELNVTVVTSLCRRSNVCTLVRGRQAGVCFGDSGSPLVCNGLIHGIASFVRGGCASGLYPDAFAPVAQFVNWIDSIIQ", "values": [
      {"measurement": "cleavage of full-length TrpRS by PMN elastase (SDS-PAGE)", "setting": "[1]", "value": "PMN elastase cleavage of the 54 kDa full-length TrpRS generated a major fragment of 47 kDa and a minor fragment of 44 kDa"},
      {"measurement": "cleavage of full-length TyrRS by PMN elastase (SDS-PAGE, immunoblot)", "setting": "[2]", "value": "the addition of PMN elastase to full-length TyrRS generated a doublet of ~40 kD fragments and a ~24 kD fragment"}
    ]}
  ]
}
